Data from publication doi:10.1101/2022.04.14.487897 (bioRxiv, 2022).

Assays:
mortalin (HSPA9) [1] = target: mortalin (HSPA9) (UniProt P38646); assay: MST
mortalin (HSPA9) [2] = target: mortalin (HSPA9) (UniProt P38646 47-679, Alexa 647 dye (NanoTemper) / NT-647 label); assay: MST
[3] = target: H26Y cytochrome c (globular structure, high peroxidase activity) (UniProt P00004); assay: enzyme inhibition
[4] = target: ferrous cytochrome c (Fe2+), horse heart (horse, UniProt P00004 1-105, heme iron ferrous (Fe^2+)); assay: enzyme inhibition
Chain of ferrous cytochrome c (Fe2+), horse heart (P00004 whole entry): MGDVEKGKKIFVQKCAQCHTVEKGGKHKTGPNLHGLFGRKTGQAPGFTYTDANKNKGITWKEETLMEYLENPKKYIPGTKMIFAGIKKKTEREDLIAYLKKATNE

Chain of mortalin (HSPA9) (UniProt P38646) (P38646 47-679): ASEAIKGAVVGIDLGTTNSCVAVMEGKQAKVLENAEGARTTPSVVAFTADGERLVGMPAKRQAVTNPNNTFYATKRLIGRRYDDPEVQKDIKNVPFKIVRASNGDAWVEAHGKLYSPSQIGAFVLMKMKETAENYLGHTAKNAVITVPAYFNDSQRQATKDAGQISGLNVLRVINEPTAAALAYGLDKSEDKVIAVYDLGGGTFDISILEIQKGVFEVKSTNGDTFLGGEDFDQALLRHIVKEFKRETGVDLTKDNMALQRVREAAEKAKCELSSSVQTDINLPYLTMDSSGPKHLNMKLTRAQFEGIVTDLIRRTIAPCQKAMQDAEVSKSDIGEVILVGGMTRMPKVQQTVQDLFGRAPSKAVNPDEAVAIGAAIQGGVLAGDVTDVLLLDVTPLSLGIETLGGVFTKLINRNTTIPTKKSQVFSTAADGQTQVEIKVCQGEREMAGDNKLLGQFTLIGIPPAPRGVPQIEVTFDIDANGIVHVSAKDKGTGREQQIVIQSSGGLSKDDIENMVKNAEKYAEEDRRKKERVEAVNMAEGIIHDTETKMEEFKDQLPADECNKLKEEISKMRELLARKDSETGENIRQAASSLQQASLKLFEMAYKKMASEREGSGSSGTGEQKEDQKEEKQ
Chain of mortalin (HSPA9) (UniProt P38646 47-679, Alexa 647 dye (NanoTemper) / NT-647 label) (P38646 47-679): as above

Bcl-2 (from UniProt P10415 1-239) (natural protein)
Kd (mortalin (HSPA9) [1]): 0.171 µM

B1: full-length human p66Shc (wildtype) (natural protein, UniProt P29353-1 1-583, looked up)
chain: MDLLPPKPKYNPLRNESLSSLEEGASGSTPPEELPSPSASSLGPILPPLPGDDSPTTLCSFFPRMSNLRLANPAGGRPGSKGEPGRAADDGEGIVGAAMPDSGPLPLLQDMNKLSGGGGRRTRVEGGQLGGEEWTRHGSFVNKPTRGWLHPNDKVMGPGVSYLVRYMGCVEVLQSMRALDFNTRTQVTREAISLVCEAVPGAKGATRRRKPCSRPLSSILGRSNLKFAGMPITLTVSTSSLNLMAADCKQIIANHHMQSISFASGGDPDTAEYVAYVAKDPVNQRACHILECPEGLAQDVISTIGQAFELRFKQYLRNPPKLVTPHDRMAGFDGSAWDEEEEEPPDHQYYNDFPGKEPPLGGVVDMRLREGAAPGAARPTAPNAQTPSHLGATLPVGQPVGGDPEVRKQMPPPPPCPGRELFDDPSYVNVQNLDKARQAVGGAGPPNPAINGSAPRDLFDMKPFEDALRVPPPPQSVSMAEQLRGEPWFHGKLSRREAEALLQLNGDFLVRESTTTPGQYVLTGLQSGQPKHLLLVDPEGVVRTKDHRFESVSHLISYHMDNHLPIISAGSELCLQQPVERKL
modifications: Alexa 647 label (only in the MST with cytochrome c, where p66Shc was the labelled protein)
Kd (mortalin (HSPA9) [2]): 0.858 µM | Ki [3]: 3.54 µM | Ki [4]: 1.43 µM
